Measured values as given in patent publication US20220298260A1 (MYTHIC THERAPEUTICS, published 2022).

Biological target: T1, FOLR1 (R&D Systems, Cat #5646-FR) (human, UniProt P15328 25-233)
T1 construct: Bought soluble protein; also called Folate Receptor 1
Test: BLI, IgG on anti-human Fc sensor, 50 nM FOLR1

T1 sequence (P15328 25-233 limits assumed): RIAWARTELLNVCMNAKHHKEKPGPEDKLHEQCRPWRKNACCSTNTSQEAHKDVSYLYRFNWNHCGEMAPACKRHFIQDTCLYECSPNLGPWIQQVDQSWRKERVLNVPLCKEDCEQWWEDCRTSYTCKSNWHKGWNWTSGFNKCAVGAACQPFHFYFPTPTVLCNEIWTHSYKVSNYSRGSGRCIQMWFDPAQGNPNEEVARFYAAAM

Row | binding result | Binder
1 | binds | MYT1559 (antibody, V domains shown, IgG) VH: QVQLVQSGAEVVKPGASVKISCKASGYTFTGYFMNWVKQSPGQSLEWIGRIHPYDGDTFYNQKFQGKATLTVDKSSNTAHMELLSLTSEDFAVYYCTRYDGSRAMDYWGQGTTVTVSS VL: DIVLTQSPLSLAVSLGQPAIISCHASQSVSFAGTSLMHWYHQKPGQQPRLLIYRASNLEAGVPDRFSGSGSKTDFTLTISPVEAEDAATYYCQQSREYPYTFGGGTKLEIK
2 | binds | MYT1567 (antibody, V domains shown, IgG) VH: QVQLVQSGAEVVKPGASVKISCKASGYTFTGYFMNWVKQSPGQSLEWIGRIHPYDGDTFYNQKFQGKATLTVDKSSNTAHMELLSLTSEDFAVYYCTRYDGSRAMDYWGQGTTVTVSS VL: DIVLTQSPLSLAVSLGQPAIISCKASQSVSFHGTSLMHWYHQKPGQQPRLLIYRASNLEAGVPDRFSGSGSKTDFTLTISPVEAEDAATYYCQQSREYPYTFGGGTKLEIK
3 | binds | MYT1561 (antibody, V domains shown, IgG) VH: QVQLVQSGAEVVKPGASVKISCKASGYTFTGYFMNWVKQSPGQSLEWIGRIHPYDGDTFYNQKFQGKATLTVDKSSNTAHMELLSLTSEDFAVYYCTRYDGSRAMDYWGQGTTVTVSS VL: DIVLTQSPLSLAVSLGQPAIISCKAHQSVSFAGTSLMHWYHQKPGQQPRLLIYRASNLEAGVPDRFSGSGSKTDFTLTISPVEAEDAATYYCQQSREYPYTFGGGTKLEIK
4 | binds | MYT1570 (antibody, V domains shown, IgG) VH: QVQLVQSGAEVVKPGASVKISCKASGYTFTGYFMNWVKQSPGQSLEWIGRIHPYDGDTFYNQKFQGKATLTVDKSSNTAHMELLSLTSEDFAVYYCTRYDGSRAMDYWGQGTTVTVSS VL: DIVLTQSPLSLAVSLGQPAIISCKASQSVSFAGTHLMHWYHQKPGQQPRLLIYRASNLEAGVPDRFSGSGSKTDFTLTISPVEAEDAATYYCQQSREYPYTFGGGTKLEIK
5 | binds | MYT1565 (antibody, V domains shown, IgG) VH: QVQLVQSGAEVVKPGASVKISCKASGYTFTGYFMNWVKQSPGQSLEWIGRIHPYDGDTFYNQKFQGKATLTVDKSSNTAHMELLSLTSEDFAVYYCTRYDGSRAMDYWGQGTTVTVSS VL: DIVLTQSPLSLAVSLGQPAIISCKASQSVHFAGTSLMHWYHQKPGQQPRLLIYRASNLEAGVPDRFSGSGSKTDFTLTISPVEAEDAATYYCQQSREYPYTFGGGTKLEIK
6 | binds | MYT1582 (antibody, V domains shown, IgG) VH: QVQLVQSGAEVVKPGASVKISCKASGYTFTGYFMNWVKQSPGQSLEWIGRIHPYDGDTFYNQKFQGKATLTVDKSSNTAHMELLSLTSEDFAVYYCTRYDGSRAMDYWGQGTTVTVSS VL: DIVLTQSPLSLAVSLGQPAIISCKASQSVSFAGTSLMHWYHQKPGQQPRLLIYRASNLEAGVPDRFSGSGSKTDFTLTISPVEAEDAATYYCQHSREYPYTFGGGTKLEIK
7 | binds | MYT1562 (antibody, V domains shown, IgG) VH: QVQLVQSGAEVVKPGASVKISCKASGYTFTGYFMNWVKQSPGQSLEWIGRIHPYDGDTFYNQKFQGKATLTVDKSSNTAHMELLSLTSEDFAVYYCTRYDGSRAMDYWGQGTTVTVSS VL: DIVLTQSPLSLAVSLGQPAIISCKASHSVSFAGTSLMHWYHQKPGQQPRLLIYRASNLEAGVPDRFSGSGSKTDFTLTISPVEAEDAATYYCQQSREYPYTFGGGTKLEIK
8 | binds | MYT1575 (antibody, V domains shown, IgG) VH: QVQLVQSGAEVVKPGASVKISCKASGYTFTGYFMNWVKQSPGQSLEWIGRIHPYDGDTFYNQKFQGKATLTVDKSSNTAHMELLSLTSEDFAVYYCTRYDGSRAMDYWGQGTTVTVSS VL: DIVLTQSPLSLAVSLGQPAIISCKASQSVSFAGTSLMHWYHQKPGQQPRLLIYRHSNLEAGVPDRFSGSGSKTDFTLTISPVEAEDAATYYCQQSREYPYTFGGGTKLEIK
9 | binds | MYT1576 (antibody, V domains shown, IgG) VH: QVQLVQSGAEVVKPGASVKISCKASGYTFTGYFMNWVKQSPGQSLEWIGRIHPYDGDTFYNQKFQGKATLTVDKSSNTAHMELLSLTSEDFAVYYCTRYDGSRAMDYWGQGTTVTVSS VL: DIVLTQSPLSLAVSLGQPAIISCKASQSVSFAGTSLMHWYHQKPGQQPRLLIYRAHNLEAGVPDRFSGSGSKTDFTLTISPVEAEDAATYYCQQSREYPYTFGGGTKLEIK
10 | binds | MYT1577 (antibody, V domains shown, IgG) VH: QVQLVQSGAEVVKPGASVKISCKASGYTFTGYFMNWVKQSPGQSLEWIGRIHPYDGDTFYNQKFQGKATLTVDKSSNTAHMELLSLTSEDFAVYYCTRYDGSRAMDYWGQGTTVTVSS VL: DIVLTQSPLSLAVSLGQPAIISCKASQSVSFAGTSLMHWYHQKPGQQPRLLIYRASHLEAGVPDRFSGSGSKTDFTLTISPVEAEDAATYYCQQSREYPYTFGGGTKLEIK
11 | binds | MYT1566 (antibody, V domains shown, IgG) VH: QVQLVQSGAEVVKPGASVKISCKASGYTFTGYFMNWVKQSPGQSLEWIGRIHPYDGDTFYNQKFQGKATLTVDKSSNTAHMELLSLTSEDFAVYYCTRYDGSRAMDYWGQGTTVTVSS VL: DIVLTQSPLSLAVSLGQPAIISCKASQSVSHAGTSLMHWYHQKPGQQPRLLIYRASNLEAGVPDRFSGSGSKTDFTLTISPVEAEDAATYYCQQSREYPYTFGGGTKLEIK
12 | binds | MYT1569 (antibody, V domains shown, IgG) VH: QVQLVQSGAEVVKPGASVKISCKASGYTFTGYFMNWVKQSPGQSLEWIGRIHPYDGDTFYNQKFQGKATLTVDKSSNTAHMELLSLTSEDFAVYYCTRYDGSRAMDYWGQGTTVTVSS VL: DIVLTQSPLSLAVSLGQPAIISCKASQSVSFAGHSLMHWYHQKPGQQPRLLIYRASNLEAGVPDRFSGSGSKTDFTLTISPVEAEDAATYYCQQSREYPYTFGGGTKLEIK
13 | binds | MYT1578 (antibody, V domains shown, IgG) VH: QVQLVQSGAEVVKPGASVKISCKASGYTFTGYFMNWVKQSPGQSLEWIGRIHPYDGDTFYNQKFQGKATLTVDKSSNTAHMELLSLTSEDFAVYYCTRYDGSRAMDYWGQGTTVTVSS VL: DIVLTQSPLSLAVSLGQPAIISCKASQSVSFAGTSLMHWYHQKPGQQPRLLIYRASNHEAGVPDRFSGSGSKTDFTLTISPVEAEDAATYYCQQSREYPYTFGGGTKLEIK
14 | binds | MYT1581 (antibody, V domains shown, IgG) VH: QVQLVQSGAEVVKPGASVKISCKASGYTFTGYFMNWVKQSPGQSLEWIGRIHPYDGDTFYNQKFQGKATLTVDKSSNTAHMELLSLTSEDFAVYYCTRYDGSRAMDYWGQGTTVTVSS VL: DIVLTQSPLSLAVSLGQPAIISCKASQSVSFAGTSLMHWYHQKPGQQPRLLIYRASNLEAGVPDRFSGSGSKTDFTLTISPVEAEDAATYYCHQSREYPYTFGGGTKLEIK
15 | binds | MYT1563 (antibody, V domains shown, IgG) VH: QVQLVQSGAEVVKPGASVKISCKASGYTFTGYFMNWVKQSPGQSLEWIGRIHPYDGDTFYNQKFQGKATLTVDKSSNTAHMELLSLTSEDFAVYYCTRYDGSRAMDYWGQGTTVTVSS VL: DIVLTQSPLSLAVSLGQPAIISCKASQHVSFAGTSLMHWYHQKPGQQPRLLIYRASNLEAGVPDRFSGSGSKTDFTLTISPVEAEDAATYYCQQSREYPYTFGGGTKLEIK
16 | binds | MYT1571 (antibody, V domains shown, IgG) VH: QVQLVQSGAEVVKPGASVKISCKASGYTFTGYFMNWVKQSPGQSLEWIGRIHPYDGDTFYNQKFQGKATLTVDKSSNTAHMELLSLTSEDFAVYYCTRYDGSRAMDYWGQGTTVTVSS VL: DIVLTQSPLSLAVSLGQPAIISCKASQSVSFAGTSHMHWYHQKPGQQPRLLIYRASNLEAGVPDRFSGSGSKTDFTLTISPVEAEDAATYYCQQSREYPYTFGGGTKLEIK
17 | binds | MYT1573 (antibody, V domains shown, IgG) VH: QVQLVQSGAEVVKPGASVKISCKASGYTFTGYFMNWVKQSPGQSLEWIGRIHPYDGDTFYNQKFQGKATLTVDKSSNTAHMELLSLTSEDFAVYYCTRYDGSRAMDYWGQGTTVTVSS VL: DIVLTQSPLSLAVSLGQPAIISCKASQSVSFAGTSLMAWYHQKPGQQPRLLIYRASNLEAGVPDRFSGSGSKTDFTLTISPVEAEDAATYYCQQSREYPYTFGGGTKLEIK
18 | binds | MYT1574 (antibody, V domains shown, IgG) VH: QVQLVQSGAEVVKPGASVKISCKASGYTFTGYFMNWVKQSPGQSLEWIGRIHPYDGDTFYNQKFQGKATLTVDKSSNTAHMELLSLTSEDFAVYYCTRYDGSRAMDYWGQGTTVTVSS VL: DIVLTQSPLSLAVSLGQPAIISCKASQSVSFAGTSLMHWYHQKPGQQPRLLIYHASNLEAGVPDRFSGSGSKTDFTLTISPVEAEDAATYYCQQSREYPYTFGGGTKLEIK
19 | binds | MYT1568 (antibody, V domains shown, IgG) VH: QVQLVQSGAEVVKPGASVKISCKASGYTFTGYFMNWVKQSPGQSLEWIGRIHPYDGDTFYNQKFQGKATLTVDKSSNTAHMELLSLTSEDFAVYYCTRYDGSRAMDYWGQGTTVTVSS VL: DIVLTQSPLSLAVSLGQPAIISCKASQSVSFAHTSLMHWYHQKPGQQPRLLIYRASNLEAGVPDRFSGSGSKTDFTLTISPVEAEDAATYYCQQSREYPYTFGGGTKLEIK
20 | binds | MYT1579 (antibody, V domains shown, IgG) VH: QVQLVQSGAEVVKPGASVKISCKASGYTFTGYFMNWVKQSPGQSLEWIGRIHPYDGDTFYNQKFQGKATLTVDKSSNTAHMELLSLTSEDFAVYYCTRYDGSRAMDYWGQGTTVTVSS VL: DIVLTQSPLSLAVSLGQPAIISCKASQSVSFAGTSLMHWYHQKPGQQPRLLIYRASNLHAGVPDRFSGSGSKTDFTLTISPVEAEDAATYYCQQSREYPYTFGGGTKLEIK
21 | binds | MYT1580 (antibody, V domains shown, IgG) VH: QVQLVQSGAEVVKPGASVKISCKASGYTFTGYFMNWVKQSPGQSLEWIGRIHPYDGDTFYNQKFQGKATLTVDKSSNTAHMELLSLTSEDFAVYYCTRYDGSRAMDYWGQGTTVTVSS VL: DIVLTQSPLSLAVSLGQPAIISCKASQSVSFAGTSLMHWYHQKPGQQPRLLIYRASNLEHGVPDRFSGSGSKTDFTLTISPVEAEDAATYYCQQSREYPYTFGGGTKLEIK
